{"source": "paper PMC10739146", "proteins": {"B1": {"name": "Rim21: N15Q (protein)", "parent chain": "MNLWRHSPEELAAYNSCHPMKLGSGVLIQLPLYDNSAVYAEDITFRSFCCERVPVYVSTVLRNSSPYRYLDEVINDWQKFIQVSDYVGGSAEYAIYAVILSITSNFVITVFLTVICCINISGRAYKRILQLLRIASLLASLNLTIFITKVLRRLEKEHNVYGVVRAHSIMHIFSDDMTFVVLDFLATLMFQFCQVGIVIRLFQRAQEKRIIFFIGVILTITANILWVIPPFANHTTKHRNDWQILRPFVYLFRIAIATSYASIVIYHIWQKKKLWFKFNQMGLLTLLTILVVLLLPGFFLADVSNLWISELGEVFNTTCYVTSTVITWEWLDRLNVLERKEEAQSILGRPIFEEEQQDYRFAKYALRVQNALTRRESQDASTDRHDTSSNSEVCDLQTISRYDPEDQISVGRSIDRMHFNDRGTYKDVALKKLGYARDKILYFTDQIVQKSVGHNNSSSSKNEKTKQRKAMVRKRLGLDKPGIYIYSTKDVVFNSDEDDDENAEDEDDDEYEVGSEGNNNSSATFTSDHIGHI"}}, "key": {"[1]": {"assay": "anti-HA immunoblot of total lysate", "settings": "glycan lost; control: wild type Rim21"}, "[2]": {"assay": "cycloheximide chase, immunoblot, ± alkali", "settings": "glycan lost; control: wild type Rim21"}, "[3]": {"assay": "stepwise centrifugation P13/P100/S100, immunoblot", "settings": "glycan lost; control: wild type Rim21-HA"}, "[4]": {"assay": "GFP fluorescence microscopy with mRFP-Snc1(pm) marker", "settings": "glycan lost; control: wild type Rim21-2GFP"}}, "data": [{"protein": "B1", "values": [{"measurement": "expression_or_secretion", "setting": "[1]", "value": "increases"}, {"measurement": "degradation_or_half_life", "setting": "[2]", "value": "increases"}, {"measurement": "localisation_or_trafficking", "setting": "[3]", "value": "changes"}, {"measurement": "localisation_or_trafficking", "setting": "[4]", "value": "no change"}]}]}
